According to the supplement of paper PMC11246515:
± gives the standard deviation of the averaged measurements.

Assay: total protein half-life in vivo (active degradation + dilution); higher = more stable protein
[1] = E. coli NCM3722 delta-smpB, growth: N-lim chemostat, doubling time 6 h
[2] = wild type E. coli NCM3722, growth: C-lim chemostat, doubling time 3 h
[3] = wild type E. coli NCM3722, growth: C-lim chemostat, doubling time 6 h
[4] = wild type E. coli NCM3722, growth: C-lim chemostat, doubling time 12 h
[5] = wild type E. coli NCM3722, growth: P-lim chemostat, doubling time 12 h
[6] = wild type E. coli NCM3722, growth: N-lim chemostat, doubling time 12 h
[7] = E. coli NCM3722 delta-clpP delta-lon delta-hslV, growth: N-lim chemostat, doubling time 6 h
[8] = E. coli NCM3722 delta-clpP, growth: N-lim chemostat, doubling time 6 h
[9] = E. coli NCM3722 delta-hslV, growth: N-lim chemostat, doubling time 6 h
[10] = E. coli NCM3722 delta-lon, growth: N-lim chemostat, doubling time 6 h
[11] = wild type E. coli NCM3722, growth: N-lim chemostat, doubling time 6 h
[12] = wild type E. coli NCM3722, growth: P-lim chemostat, doubling time 6 h

Sequence | total protein half-life in vivo [1] [h] | total protein half-life in vivo [2] [h] | total protein half-life in vivo [3] [h] | total protein half-life in vivo [4] [h] | total protein half-life in vivo [5] [h] | total protein half-life in vivo [6] [h] | total protein half-life in vivo [7] [h] | total protein half-life in vivo [8] [h] | total protein half-life in vivo [9] [h] | total protein half-life in vivo [10] [h] | total protein half-life in vivo [11] [h] | total protein half-life in vivo [12] [h]
MSELKISPELLQISPEVQDALKNKKPVVALESTIISHGMPFPQNAQTAIEVEETIRKQGAVPATIAIIGGVMKVGLSKEEIELLGREGHNVTKVSRRDLPFVVAAGKNGATTVASTMIIAALAGIKVFATGGIGGVHRGAEHTFDISADLQELANTNVTVVCAGAKSILDLGLTTEYLETFGVPLIGYQTKALPAFFCRTSPFDVSIRLDSASEIARAMVVKWQSGLNGGLVVANPIPEQFAMPEHTINAAIDQAVAEAEAQGVIGKESTPFLLARVAELTGGDSLKSNIQLVFNNAILASEIAKEYQRLAG | 1.52 ± 0.068 | 2.56 ± 0.11 | 4.42 ± 0.53 | 6.33 ± 0.81 | 4.2 | – | – | – | – | – | – | –
MSTANQKPTESVSLNAFKQPKAFYLIFSIELWERFGYYGLQGIMAVYLVKQLGMSEADSITLFSSFSALVYGLVAIGGWLGDKVLGTKRVIMLGAIVLAIGYALVAWSGHDAGIVYMGMAAIAVGNGLFKANPSSLLSTCYEKNDPRLDGAFTMYYMSVNIGSFFSMIATPWLAAKYGWSVAFALSVVGLLITIVNFAFCQRWVKQYGSKPDFEPINYRNLLLTIIGVVALIAIATWLLHNQEVARMALGVVAFGIVVIFGKEAFAMKGAARRKMIVAFILMLEAIIFFVLYSQMPTSLNFFAIRNVEHSILGLAVEPEQYQALNPFWIIIGSPILAAIYNKMGDTLPMPTKFAIGMVMCSGAFLILPLGAKFASDAGIVSVSWLVASYGLQSIGELMISGLGLAMVAQLVPQRLMGFIMGSWFLTTAGANLIGGYVAGMMAVPDNVTDPLMSLEVYGRVFLQIGVATAVIAVLMLLTAPKLHRMTQDDAADKAAKAAVA | – | – | – | – | – | 4.49 | – | – | – | – | – | –
MKKSITTLDLNLLLCLQLLMQERSVTKAAKRINVTPSAVSKSLAKLRAWFDDPLFVNSPLGLSPTPLMVSMEQNLAEWMQMSNLLLDKPHHQTPRGLKFELAAESPLMMIMLNALSKQIYQRYPQATIKLRNWDYDSLDAITRGEVDIGFSGRESHPRSRELLSSLPLAIDYEVLFSDVPCVWLRKDHPALHQTWNLDTFLRYPHISICWEQSDTWALDNVLQELGRERTIAMSLPEFEQSLFMAAQPDNLLLATAPRYCQYYNQLHQLPLVALPLPFDESQQKKLEVPFTLLWHKRNSHNPKIVWLRETIKNLYASMA | 4.519 ± 0.029 | – | – | – | 11.2 ± 0.6 | 12.2 | 5.87 ± 0.7 | 5.16 ± 1 | 5.91 ± 0.94 | 6.37 ± 0.5 | 4.74 | –
MSQRITIDPVTRIEGHLRIDCEIENGVVSKAWASGTMWRGMEEIVKNRDPRDAWMIVQRICGVCTTTHALSSVRAAESALNIDVPVNAQYIRNIILAAHTTHDHIVHFYQLSALDWVDITSALQADPTKASEMLKGVSTWHLNSPEEFTKVQNKIKDLVASGQLGIFANGYWGHPAMKLPPEVNLIAVAHYLQALECQRDANRVVALLGGKTPHIQNLAVGGVANPINLDGLGVLNLERLMYIKSFIDKLSDFVEQVYKVDTAVIAAFYPEWLTRGKGAVNYLSVPEFPTDSKNGSFLFPGGYIENADLSSYRPITSHSDEYLIKGIQESAKHSWYKDEAPQAPWEGTTIPAYDGWSDDGKYSWVKSPTFYGKTVEVGPLANMLVKLAAGRESTQNKLNEIVAIYQKLTGNTLEVAQLHSTLGRIIGRTVHCCELQDILQNQYSALITNIGKGDHTTFVKPNIPATGEFKGVGFLEAPRGMLSHWMVIKDGIISNYQAVVPSTWNSGPRNFNDDVGPYEQSLVGTPVADPNKPLEVVRTIHSFDPCMACAVHVVDADGNEVVSVKVL [P0ACE0] | 2.6 ± 0.2 | 2.07 ± 0.18 | 4.37 ± 1 | 7.59 ± 2.3 | 10.7 ± 4.1 | 4.62 | 5.01 ± 1.1 | 4.55 ± 1.2 | 3.87 ± 1.6 | – | 3.47 ± 0.036 | 4.92 ± 2.1
MIVISRHVAIPDGELEITAIRAQGAGGQHVNKTSTAIHLRFDIRASSLPEYYKERLLAASHHLISSDGVIVIKAQEYRSQELNREAALARLVAMIKELTTEKKARRPTRPTRASKERRLASKAQKSSVKAMRGKVRSGRE | 4.58 | 2.4 | 4.63 | 6.61 | – | 8.89 | – | 3.47 | 4.86 | 5 ± 0.37 | 4.19 | 4.91
MSEKHPGPLVVEGKLTDAERMKHESNYLRGTIAEDLNDGLTGGFKGDNFLLIRFHGMYQQDDRDIRAERAEQKLEPRHAMLLRCRLPGGVITTKQWQAIDKFAGENTIYGSIRLTNRQTFQFHGILKKNVKPVHQMLHSVGLDALATANDMNRNVLCTSNPYESQLHAEAYEWAKKISEHLLPRTRAYAEIWLDQEKVATTDEEPILGQTYLPRKFKTTVVIPPQNDIDLHANDMNFVAIAENGKLVGFNLLVGGGLSIEHGNKKTYARTASEFGYLPLEHTLAVAEAVVTTQRDWGNRTDRKNAKTKYTLERVGVETFKAEVERRAGIKFEPIRPYEFTGRGDRIGWVKGIDDNWHLTLFIENGRILDYPARPLKTGLLEIAKIHKGDFRITANQNLIIAGVPESEKAKIEKIAKESGLMNAVTPQRENSMACVSFPTCPLAMAEAERFLPSFIDNIDNLMAKHGVSDEHIVMRVTGCPNGCGRAMLAEVGLVGKAPGRYNLHLGGNRIGTRIPRMYKENITEPEILASLDELIGRWAKEREAGEGFGDFTVRAGIIRPVLDPARDLWD | 2.55 ± 0.1 | 2.55 ± 0.13 | 4.1634 ± 0.0008 | 5.98 ± 0.51 | 6.82 ± 0.1 | 3.73 ± 0.062 | 4.99 ± 0.69 | 3.79 ± 0.29 | 2.52 ± 0.056 | 3.07 ± 0.14 | 2.82 ± 0.28 | 3.91 ± 0.24
MTNYRVESSSGRAARKMRLALMGPAFIAAIGYIDPGNFATNIQAGASFGYQLLWVVVWANLMAMLIQILSAKLGIATGKNLAEQIRDHYPRPVVWFYWVQAEIIAMATDLAEFIGAAIGFKLILGVSLLQGAVLTGIATFLILMLQRRGQKPLEKVIGGLLLFVAAAYIVELIFSQPNLAQLGKGMVIPSLPTSEAVFLAAGVLGATIMPHVIYLHSSLTQHLHGGSRQQRYSATKWDVAIAMTIAGFVNLAMMATAAAAFHFSGHTGVADLDEAYLTLQPLLSHAAATVFGLSLVAAGLSSTVVGTLAGQVVMQGFIRFHIPLWVRRTVTMLPSFIVILMGLDPTRILVMSQVLLSFGIALALVPLLIFTSDSKLMGDLVNSKRVKQTGWVIVVLVVALNIWLLVGTALGL [P0A769] | 2.15 ± 0.48 | 1.29 | – | 3.66 | – | 3.65 ± 1.2 | 2.46 | 3.02 | 2.87 | – | 2.23 ± 1.2 | 2.19
MSHKPAHLLLVDDDPGLLKLLGLRLTSEGYSVVTAESGAEGLRVLNREKVDLVISDLRMDEMDGMQLFAEIQKVQPGMPVIILTAHGSIPDAVAATQQGVFSFLTKPVDKDALYQAIDDALEQSAPATDERWREAIVTRSPLMLRLLEQARLVAQSDVSVLINGQSGTGKEIFAQAIHNASPRNSKPFIAINCGALPEQLLESELFGHARGAFTGAVSNREGLFQAAEGGTLFLDEIGDMPAPLQVKLLRVLQERKVRPLGSNRDIDINVRIISATHRDLPKAMARGEFREDLYYRLNVVSLKIPALAERTEDIPLLANHLLRQAAERHKPFVRAFSTDAMKRLMTASWPGNVRQLVNVIEQCVALTSSPVISDALVEQALEGENTALPTFVEARNQFELNYLRKLLQITKGNVTHAARMAGRNRTEFYKLLSRHELDANDFKE [P0AFU4] | 4.45 ± 0.29 | 3.25 ± 0.19 | 5.86 ± 0.38 | 11 ± 2.4 | 12 ± 0.29 | 7.72 ± 0.09 | 6.81 ± 1.7 | 4.73 ± 0.42 | 4.48 ± 0.2 | 5 ± 0.17 | 4.26 ± 0.069 | 5.4 ± 0.19
MPQQNYLDELTPAFTSLLAIKEASRCLLCHDAPCSQACPAQTDPGKFIRSIYFRNFKGAAETIRENNALGAVCARVCPTEKLCQSGCTRAGVDAPIDIGRLQRFVTDFEQQTGMEIYQPGTKTLGKVAIIGAGPAGLQASVTLTNQGYDVTIYEKEAHPGGWLRNGIPQFRLPQSVLDAEIARIEKMGVTIKCNNEVGNTLTLEQLKAENRAVLVTVGLSSGSGLPLFEHSDVEIAVDFLQRARQAQGDISIPQSALIIGGGDVAMDVASTLKVLGCQAVTCVAREELDEFPASEKEFTSARELGVSIIDGFTPVAVEGNKVTFKHVRLSGELTMAADKIILAVGQHARLDAFAELEPQRNTIKTQNYQTRDPQVFAAGDIVEGDKTVVYAVKTGKEAAEAIHHYLEGACSC | – | 1.14 ± 0.029 | 1.42 ± 0.22 | 2.52 ± 1.1 | – | – | > 8 | – | – | – | – | –
